According to article doi:10.1101/2022.08.30.505748 (bioRxiv, 2022):
Substitutions are numbered along the chain they refer to. Names may count otherwise. Read-outs that look alike come from different tables or passages of the source.

Key:
[1] = target: activated caspase-3 (WT), His6-tagged, RED-tris-NTA labelled (UniProt P42574); assay: MST
[2] = target: activated caspase-7, His6-tagged, RED-tris-NTA labelled (UniProt P55210); assay: MST
[3] = target: activated caspase-9, His6-tagged, RED-tris-NTA labelled (UniProt P55211); assay: MST
[4] = target: BIRC6 (Baculoviral IAP repeat-containing protein 6), full-length, wild-type, tag removed (UniProt Q9NR09); assay: SEC-MALS; conditions: remark: other sources report otherwise
[5] = target: BIRC6 (Baculoviral IAP repeat-containing protein 6), full-length, wild-type, tag removed (UniProt Q9NR09); assay: cryo-EM structure; conditions: remark: other sources report otherwise
[6] = target: BIRC6 (Baculoviral IAP repeat-containing protein 6), full-length, wild-type, tag removed (UniProt Q9NR09); assay: cryo-EM structure; conditions: remark: other sources report otherwise; remark: listed apart in the source
[7] = target: Alexa555-SMAC (WT), a.a. 56-239 with a C-terminal cysteine (UniProt Q9NR28); assay: fluorescence polarisation
[8] = target: T1, BIRC6 (Baculoviral IAP repeat-containing protein 6), full-length, wild-type, tag removed (UniProt Q9NR09 1-4857); assay: fluorescence polarisation
T1 sequence (Q9NR09 whole entry): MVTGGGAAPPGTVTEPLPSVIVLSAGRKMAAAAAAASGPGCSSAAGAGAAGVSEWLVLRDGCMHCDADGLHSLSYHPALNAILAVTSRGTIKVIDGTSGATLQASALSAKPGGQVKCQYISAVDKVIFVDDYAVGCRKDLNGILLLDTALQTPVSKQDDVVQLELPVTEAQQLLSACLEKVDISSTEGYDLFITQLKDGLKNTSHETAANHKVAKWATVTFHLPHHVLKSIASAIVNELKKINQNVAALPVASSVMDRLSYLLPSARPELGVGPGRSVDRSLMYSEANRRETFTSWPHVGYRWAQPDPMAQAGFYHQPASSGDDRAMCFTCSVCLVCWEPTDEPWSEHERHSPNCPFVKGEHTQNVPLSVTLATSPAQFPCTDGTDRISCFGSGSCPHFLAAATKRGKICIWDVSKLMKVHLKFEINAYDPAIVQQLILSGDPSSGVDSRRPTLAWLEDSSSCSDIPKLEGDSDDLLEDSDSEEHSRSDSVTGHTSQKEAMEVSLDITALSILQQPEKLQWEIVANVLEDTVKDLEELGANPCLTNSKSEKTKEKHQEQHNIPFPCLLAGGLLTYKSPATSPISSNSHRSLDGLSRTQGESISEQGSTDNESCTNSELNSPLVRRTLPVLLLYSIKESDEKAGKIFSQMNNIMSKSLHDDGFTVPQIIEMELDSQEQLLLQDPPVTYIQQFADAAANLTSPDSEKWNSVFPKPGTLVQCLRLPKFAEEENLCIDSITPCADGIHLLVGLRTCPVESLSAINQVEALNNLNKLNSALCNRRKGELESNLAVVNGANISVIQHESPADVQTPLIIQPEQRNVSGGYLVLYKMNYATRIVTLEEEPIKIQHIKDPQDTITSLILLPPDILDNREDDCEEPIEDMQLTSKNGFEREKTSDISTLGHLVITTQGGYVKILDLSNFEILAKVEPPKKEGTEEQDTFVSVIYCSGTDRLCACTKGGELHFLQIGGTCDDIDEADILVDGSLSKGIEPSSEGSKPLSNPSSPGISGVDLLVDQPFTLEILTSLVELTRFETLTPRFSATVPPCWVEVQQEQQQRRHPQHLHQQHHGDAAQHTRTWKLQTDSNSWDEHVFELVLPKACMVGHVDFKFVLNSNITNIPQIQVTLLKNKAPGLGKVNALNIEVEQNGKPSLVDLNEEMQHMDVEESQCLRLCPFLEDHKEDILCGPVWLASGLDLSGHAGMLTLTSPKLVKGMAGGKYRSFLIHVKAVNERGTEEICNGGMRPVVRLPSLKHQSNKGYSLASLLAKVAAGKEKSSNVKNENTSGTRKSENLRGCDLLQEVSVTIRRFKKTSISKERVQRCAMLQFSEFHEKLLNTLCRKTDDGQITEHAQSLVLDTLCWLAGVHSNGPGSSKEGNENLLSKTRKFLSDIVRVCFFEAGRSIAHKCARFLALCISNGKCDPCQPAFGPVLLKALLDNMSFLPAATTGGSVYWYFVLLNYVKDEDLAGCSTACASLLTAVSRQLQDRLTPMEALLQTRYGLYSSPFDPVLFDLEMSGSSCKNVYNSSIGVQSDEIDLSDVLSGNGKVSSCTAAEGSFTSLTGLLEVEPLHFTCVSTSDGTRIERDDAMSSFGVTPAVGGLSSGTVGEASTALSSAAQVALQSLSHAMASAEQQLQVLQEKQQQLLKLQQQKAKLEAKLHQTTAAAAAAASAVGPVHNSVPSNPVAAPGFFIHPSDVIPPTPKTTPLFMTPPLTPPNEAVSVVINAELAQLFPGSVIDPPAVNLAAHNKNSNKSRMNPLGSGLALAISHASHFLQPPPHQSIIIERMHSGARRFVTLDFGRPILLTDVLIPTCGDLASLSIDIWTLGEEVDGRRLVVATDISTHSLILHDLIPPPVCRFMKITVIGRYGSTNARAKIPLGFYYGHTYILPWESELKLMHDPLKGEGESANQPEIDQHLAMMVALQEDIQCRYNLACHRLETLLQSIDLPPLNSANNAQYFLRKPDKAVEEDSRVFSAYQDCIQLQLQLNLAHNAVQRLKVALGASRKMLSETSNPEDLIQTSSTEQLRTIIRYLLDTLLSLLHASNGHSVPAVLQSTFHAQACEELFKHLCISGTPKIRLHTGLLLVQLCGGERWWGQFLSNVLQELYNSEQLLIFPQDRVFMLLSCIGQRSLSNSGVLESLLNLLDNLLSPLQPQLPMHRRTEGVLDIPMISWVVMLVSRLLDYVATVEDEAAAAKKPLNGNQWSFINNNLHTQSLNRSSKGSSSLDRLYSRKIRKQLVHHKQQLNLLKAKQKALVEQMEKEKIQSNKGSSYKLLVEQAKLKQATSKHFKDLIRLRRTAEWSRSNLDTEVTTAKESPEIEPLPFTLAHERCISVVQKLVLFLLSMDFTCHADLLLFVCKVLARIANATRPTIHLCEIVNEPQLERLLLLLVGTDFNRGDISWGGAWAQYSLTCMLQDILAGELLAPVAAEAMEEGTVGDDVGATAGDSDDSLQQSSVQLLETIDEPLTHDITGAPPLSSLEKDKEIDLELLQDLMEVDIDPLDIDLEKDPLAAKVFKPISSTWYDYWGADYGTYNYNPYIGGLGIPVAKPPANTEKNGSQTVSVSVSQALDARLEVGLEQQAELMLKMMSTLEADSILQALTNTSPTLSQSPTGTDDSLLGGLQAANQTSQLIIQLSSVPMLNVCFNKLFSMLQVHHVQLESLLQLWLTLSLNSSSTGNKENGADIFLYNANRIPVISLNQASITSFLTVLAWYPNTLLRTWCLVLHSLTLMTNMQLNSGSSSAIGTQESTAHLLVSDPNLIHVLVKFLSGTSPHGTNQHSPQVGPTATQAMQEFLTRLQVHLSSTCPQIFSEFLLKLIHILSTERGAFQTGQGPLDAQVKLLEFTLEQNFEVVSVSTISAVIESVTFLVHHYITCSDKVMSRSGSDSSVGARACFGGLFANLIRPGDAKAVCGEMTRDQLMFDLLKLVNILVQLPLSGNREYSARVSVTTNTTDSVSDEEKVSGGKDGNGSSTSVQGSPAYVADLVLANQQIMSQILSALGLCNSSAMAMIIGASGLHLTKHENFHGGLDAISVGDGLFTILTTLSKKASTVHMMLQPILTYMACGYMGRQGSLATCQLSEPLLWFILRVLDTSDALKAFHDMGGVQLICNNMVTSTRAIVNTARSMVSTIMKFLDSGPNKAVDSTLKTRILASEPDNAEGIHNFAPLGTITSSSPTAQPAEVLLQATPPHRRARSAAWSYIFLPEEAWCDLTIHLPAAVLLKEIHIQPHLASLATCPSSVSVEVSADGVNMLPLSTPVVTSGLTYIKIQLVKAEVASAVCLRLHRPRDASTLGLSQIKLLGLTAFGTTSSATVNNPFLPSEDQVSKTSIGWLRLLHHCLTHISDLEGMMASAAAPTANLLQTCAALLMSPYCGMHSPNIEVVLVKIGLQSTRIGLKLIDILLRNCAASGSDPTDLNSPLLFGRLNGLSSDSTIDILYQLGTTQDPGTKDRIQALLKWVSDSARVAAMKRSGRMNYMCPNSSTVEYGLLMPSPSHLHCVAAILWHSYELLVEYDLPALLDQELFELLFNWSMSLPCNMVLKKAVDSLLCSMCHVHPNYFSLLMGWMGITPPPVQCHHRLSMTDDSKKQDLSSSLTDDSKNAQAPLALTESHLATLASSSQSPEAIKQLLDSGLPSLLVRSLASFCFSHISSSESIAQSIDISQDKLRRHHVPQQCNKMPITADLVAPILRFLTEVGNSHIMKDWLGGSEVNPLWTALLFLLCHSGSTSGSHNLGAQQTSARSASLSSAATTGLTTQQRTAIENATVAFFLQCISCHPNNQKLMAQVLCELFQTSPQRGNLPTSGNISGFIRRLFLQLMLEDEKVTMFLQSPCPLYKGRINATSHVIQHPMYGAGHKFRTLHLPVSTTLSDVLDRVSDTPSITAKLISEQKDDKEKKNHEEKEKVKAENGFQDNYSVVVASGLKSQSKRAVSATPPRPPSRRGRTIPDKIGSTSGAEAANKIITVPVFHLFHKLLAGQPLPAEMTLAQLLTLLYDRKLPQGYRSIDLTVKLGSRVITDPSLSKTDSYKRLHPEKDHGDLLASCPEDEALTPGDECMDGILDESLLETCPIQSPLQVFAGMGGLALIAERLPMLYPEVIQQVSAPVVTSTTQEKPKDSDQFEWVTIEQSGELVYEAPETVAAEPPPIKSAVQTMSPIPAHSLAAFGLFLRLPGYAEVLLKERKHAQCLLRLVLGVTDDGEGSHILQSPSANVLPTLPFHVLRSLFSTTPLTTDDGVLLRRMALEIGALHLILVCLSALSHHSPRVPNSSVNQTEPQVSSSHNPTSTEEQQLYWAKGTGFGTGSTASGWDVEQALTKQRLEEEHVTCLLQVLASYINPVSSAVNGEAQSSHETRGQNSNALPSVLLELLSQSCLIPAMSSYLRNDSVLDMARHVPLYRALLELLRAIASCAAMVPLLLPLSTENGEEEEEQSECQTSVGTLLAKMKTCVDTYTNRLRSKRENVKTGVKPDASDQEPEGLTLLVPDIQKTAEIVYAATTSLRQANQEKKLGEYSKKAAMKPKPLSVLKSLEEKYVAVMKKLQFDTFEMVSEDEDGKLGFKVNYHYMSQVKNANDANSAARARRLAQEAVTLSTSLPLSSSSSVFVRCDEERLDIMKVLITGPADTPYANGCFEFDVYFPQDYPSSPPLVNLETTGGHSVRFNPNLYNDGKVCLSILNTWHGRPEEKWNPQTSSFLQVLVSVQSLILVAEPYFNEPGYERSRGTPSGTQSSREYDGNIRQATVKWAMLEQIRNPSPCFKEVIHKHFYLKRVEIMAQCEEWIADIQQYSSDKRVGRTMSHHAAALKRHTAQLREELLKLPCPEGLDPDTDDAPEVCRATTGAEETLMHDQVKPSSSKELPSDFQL

[9] = target: T1, BIRC6 (Baculoviral IAP …); assay: fluorescence polarisation; remark: listed apart in the source
cryo-EM structure = target: the molecule itself; assay: cryo-EM structure

activated caspase-3 (WT), His6-tagged, RED-tris-NTA labelled, sequence (P42574 whole entry): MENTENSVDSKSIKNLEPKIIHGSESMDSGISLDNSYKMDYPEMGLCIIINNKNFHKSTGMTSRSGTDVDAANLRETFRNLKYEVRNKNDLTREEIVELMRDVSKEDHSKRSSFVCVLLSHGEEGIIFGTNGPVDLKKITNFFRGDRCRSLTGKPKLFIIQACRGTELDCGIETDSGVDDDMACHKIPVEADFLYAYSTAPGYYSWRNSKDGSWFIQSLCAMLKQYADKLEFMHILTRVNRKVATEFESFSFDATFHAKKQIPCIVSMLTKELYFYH

“BIRC6 (Baculoviral IAP repeat-containing protein 6), full-length, wild-type, tag removed (from UniProt Q9NR09 1-4857) (enzyme)” was tested, and the Kd [1] was 8.9 nM, the Kd [2] was 17.1 nM and the Kd [3] was 46.4 nM.

For “BIRC6 (Baculoviral IAP repeat-containing protein 6), full-length, wild-type, tag removed, Q9NR09 1-4857”, the stoichiometry N [4] was 2, the stoichiometry N [5] was 2 and the stoichiometry N [6] was 2. For the same molecule, the fold greater affinity than for monomeric SMAC (V81D) [7] was over 10 fold.

B1: Alexa555-SMAC (WT), a.a. 56-239 with a C-terminal cysteine (natural protein)
chain: AVPIAQKSEPHSLSSEALMRRAVSLVTDSTSTFLSQTTYALIEAITEYTKAVYTLTSLYRQYTSLLGKMNSEEEDEVWQVIIGARAEMTSKHQEYLKLETTWMTAVGLSEMAAEAAYQTGADQASITARNHIQLVKLQVEEVHQLSRKAETKLAEAQIEELRQKTQEEGEERAESEQEAYLREDC
modifications: Alexa Fluor 555 on the C-terminal cysteine
B1: binds [8].

B2: Alexa 555 monomeric SMAC (V81D), a.a. 56-239 with a C-terminal cysteine (natural protein)
chain: B1 chain with V26D
modifications: Alexa Fluor 555 on the C-terminal cysteine
Molecule B2 has a Kd [8] of 12.1 ± 1.5 nM.

With AVPIAQKSEC (Cy3 on the C-terminal cysteine; C-terminal amide) [Cy3-labelled SMAC N-terminal peptide, AVPIAQKSEC(Cy3)-Am] the Kd [8] was 35.6 ± 3 nM.

B3: SMAC (second mitochondria-derived activator of caspase), a.a. 56-239, wild-type, unlabelled (natural protein)
chain: AVPIAQKSEPHSLSSEALMRRAVSLVTDSTSTFLSQTTYALIEAITEYTKAVYTLTSLYRQYTSLLGKMNSEEEDEVWQVIIGARAEMTSKHQEYLKLETTWMTAVGLSEMAAEAAYQTGADQASITARNHIQLVKLQVEEVHQLSRKAETKLAEAQIEELRQKTQEEGEERAESEQEAYLRED
With B3 the IC50 [9] was 8.3 nM, the Kd [9] was about 0.6 nM and the “stoichiometry N” value (cryo-EM structure) was 2.
